Reference: patent US20100316645A1 (Hoffmann-La Roche, published 2010)

B1: bispecific tetravalent antibody recognizing Ang-2 and VEGF-A of Example 1 (<VEGF> VH-CL fused via (G4S)4-connector to the C-terminus of the <Ang-2> heavy chain) (bispecific antibody, human IgG1, kappa)
heavy: not shown
light: QPGLTQPPSVSVAPGQTARITCGGNNIGSKSVHWYQQKPGQAPVLVVYDDSDRPSGIPERFSGSNSGNTATLTISRVEAGDEADYYCQVWDSSSDHYVFGTGTKVTVLRTVAAPSVFIFPPSDEQLKSGTASVVCLLNNFYPREAKVQWKVDNALQSGNSQESVTEQDSKDSTYSLSSTLTLSKADYEKHKVYACEVTHQGLSSPVTKSFNRGEC
chain: DIQMTQSPSSLSASVGDRVTITCSASQDISNYLNWYQQKPGKAPKVLIYFTSSLHSGVPSRFSGSGSGTDFTLTISSLQPEDFATYYCQQYSTVPWTFGQGTKVEIKSSASTKGPSVFPLAPSSKSTSGGTAALGCLVKDYFPEPVTVSWNSGALTSGVHTFPAVLQSSGLYSLSSVVTVPSSSLGTQTYICNVNHKPSNTKVDKKVEPKSC
notes: Tetravalent, expressed in HEK293F from three plasmids; also called bispecific tetravalent <VEGF-Ang-2> antibody; <Ang-2, VEGF> bispecific tetravalent antibody
B2: bispecific tetravalent antibody recognizing Ang-2 and VEGF-A of Example 2 (<VEGF> VH-CL fused via (G4S)4-connector to the N-terminus of the <Ang-2> heavy chain) (bispecific antibody, human IgG1, kappa)
heavy: not shown
light: QPGLTQPPSVSVAPGQTARITCGGNNIGSKSVHWYQQKPGQAPVLVVYDDSDRPSGIPERFSGSNSGNTATLTISRVEAGDEADYYCQVWDSSSDHYVFGTGTKVTVLRTVAAPSVFIFPPSDEQLKSGTASVVCLLNNFYPREAKVQWKVDNALQSGNSQESVTEQDSKDSTYSLSSTLTLSKADYEKHKVYACEVTHQGLSSPVTKSFNRGEC
chain: DIQMTQSPSSLSASVGDRVTITCSASQDISNYLNWYQQKPGKAPKVLIYFTSSLHSGVPSRFSGSGSGTDFTLTISSLQPEDFATYYCQQYSTVPWTFGQGTKVEIKSSASTKGPSVFPLAPSSKSTSGGTAALGCLVKDYFPEPVTVSWNSGALTSGVHTFPAVLQSSGLYSLSSVVTVPSSSLGTQTYICNVNHKPSNTKVDKKVEPKSC
notes: as for B1
B3: bispecific tetravalent antibody recognizing Ang-2 and VEGF-A of Example 3 (<Ang-2> VH-CH1 fused via (G4S)4-connector to the C-terminus of the heavy chain of a … (bispecific antibody)
heavy: not shown
light: QPGLTQPPSVSVAPGQTARITCGGNNIGSKSVHWYQQKPGQAPVLVVYDDSDRPSGIPERFSGSNSGNTATLTISRVEAGDEADYYCQVWDSSSDHYVFGTGTKVTVLRTVAAPSVFIFPPSDEQLKSGTASVVCLLNNFYPREAKVQWKVDNALQSGNSQESVTEQDSKDSTYSLSSTLTLSKADYEKHKVYACEVTHQGLSSPVTKSFNRGEC
chain: DIQMTQSPSSLSASVGDRVTITCSASQDISNYLNWYQQKPGKAPKVLIYFTSSLHSGVPSRFSGSGSGTDFTLTISSLQPEDFATYYCQQYSTVPWTFGQGTKVEIKSSASTKGPSVFPLAPSSKSTSGGTAALGCLVKDYFPEPVTVSWNSGALTSGVHTFPAVLQSSGLYSLSSVVTVPSSSLGTQTYICNVNHKPSNTKVDKKVEPKSC
notes: as for B1

Biological target: T1, recombinant human VEGF165 (full-length VEGF165-His protein, R&D Systems; rhVEGF, R&D Systems Cat.-No. 293-VE) (human, UniProt P15692-4 27-191)
T1 construct: The ELISA method names 'full-length VEGF165-His protein', and the Biacore method names rhVEGF (R&D 293-VE); also called VEGF-A
Assay: ELISA and Biacore (SPR), including simultaneous binding (bridging ELISA, SPR sandwich)
Procedure: Unbound Streptavidin-POD conjugate is washed away with three-six times 300 μl PBST (0.2% Tween 20) and bound Strepatavidin-POD conjugate is detected by addition of 100 μL ABTS/well. Determination of absorbance is performed on a Tecan Fluor Spectrometer at a measurement wavelength of 405 nm (reference wavelength 492 nm).
In order to further corroborate the data from the bridging ELISA an additional assay is established to confirm simultaneous binding to VEGF and Ang-2 using surface plasmon resonance technology on a Biacore T100 instrument according to the following protocol and analyzed using the T100 software package (T100 Control, Version 2.01, T100 Evaluation, Version 2.01, T100 Kinetics Summary, Version 1.01): Ang-2 is captured with a capture level of 2000-1700 RU in PBS, 0.005% (v/v) Tween20 running buffer via a PentaHisAntibody (PentaHis-Ab BSA-free, Qiagen No. 34660) that is immobilized on a CM5 chip via amine coupling (BSA-free). HBS-N buffer served as running buffer during coupling, activation is done by mixture of EDC/NHS. The PentaHis-Ab BSA-free Capture-Antibody is diluted in coupling buffer NaAc, pH 4.5, c=30 μg/mL, finally still activated carboxyl groups are blocked by injection of 1 M Ethanolamine; ligand densities of 5000 and 17000 RU are tested. Ang-2 with a concentration of 500 nM is captured by the PentaHis-Ab at a flow of 5 μL/min diluted with running buffer+1 mg/mL BSA. […] For this sake, the bispecific tetravalent <VEGF-Ang-2> antibody is bound to Ang-2 at a flow of 50 μL/min and a concentration of 100 nM, diluted with running buffer+1 mg/mL BSA and simultaneous binding is detected by incubation with VEGF (rhVEGF, R&D-Systems Cat.-No, 293-VE) in PBS+0.005% (v/v) Tween20 running buffer at a flow of 50 μL/min and a VEGF concentration of 150 nM. Association time 120 sec, dissociation time 1200 sec. Regeneration is done after each cycle at a flow of 50 μL/min with 2×10 mM Glycin pH 2.0 and a contact time of 60 sec. […] Blanks for each Ab are measured with rhVEGF concentration “0”.

T1 sequence (P15692 other isoform, or with tags, fused parts or gaps limits assumed): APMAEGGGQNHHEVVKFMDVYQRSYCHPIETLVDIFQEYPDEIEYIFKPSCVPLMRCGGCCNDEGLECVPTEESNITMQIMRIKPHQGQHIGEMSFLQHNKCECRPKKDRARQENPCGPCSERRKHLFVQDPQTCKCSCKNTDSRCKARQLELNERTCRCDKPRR

Binding result, binds:
B1, B2, B3
